In patent US20180030137A1 (ADURO BIOTECH HOLDINGS EUROPE B V, published 2018):

Biological target: T1, Human PD-1 (Swiss-Prot entry Q15116), full length, on cells (human, UniProt Q15116 21-288)
T1 construct: Full length open reading frame of hPD-1 stably expressed on CHO-K1 cells; also endogenous PD-1 on CD3/CD28-stimulated human CD3+ T cells and PD-1 on transfected Jurkat cells; also called hPD-1; hPDCD1
Experiment: CELISA on CHO-K1.hPDCD1 cells
Description: To further characterize these mutant hPD-1 antibodies they were tested for binding to hPD-1 in CELISA format using CHO-K1 cells (American Type Culture Collection, Manassas, Va.), stably transfected with cDNA encoding the full length open reading frame of hPDCD1 (hPD-1), subcloned into the pCI-neo vector (Promega). Parental CHO-K1 or CHO-K1.hPDCD1 cells were seeded in culture medium (DMEM-F12 (Gibco) with 10% Fetal Bovine Serum (Hyclone) and Pen/Strep (Gibco)) in tissue culture plates and incubated for 48 hours at 37° C. Subsequently culture medium was removed and cells were incubated for 1 hour at 37° C. with the mutant hPD-1 antibodies (10 μg/ml (=66 nM) and dilutions thereof). Next, cells were washed with Phosphate-Buffered Saline/0.05% Tween (PBST) and incubated for 1 hour at 37° C. with Goat-anti-human IgG-HRP (Southern Biotech). Subsequently, cells were washed 3 times with PBST and anti-hPD1 immunoreactivity was visualized with 100 al TMB Stabilized Chromagen (Invitrogen). Reactions were stopped with 100 al 0.5 M H2SO4 and absorbances were read at 450 and 610 nm. […] Blockade of hPD-L1 binding by the mutant hPD-1 antibodies was tested in CELISA format. Parental CHO-K1 or CHO-K1.hPDCD1 cells were seeded in tissue culture plates and incubated for 72 hours at 37° C. in culture medium. Subsequently culture medium was removed and cells were incubated for 1 hour with the mutant hPD-1 antibodies (10 μg/ml (=66 nM) and dilutions thereof) at 37° C. […] Cells were then washed three times with PBST followed by addition of Streptavidin-HRP conjugate on the cells, which was incubated for 1 hour at 37° C. […] Reactions were stopped with 100 al 0.5 M H2SO4 and absorbances were read at 450 and 610 nm. Calculated IC50 values in Table 12 for the blockade of hPD-L1 represent the concentration at which half of the inhibition is observed.

T1 sequence (Q15116 21-288, one chain of several): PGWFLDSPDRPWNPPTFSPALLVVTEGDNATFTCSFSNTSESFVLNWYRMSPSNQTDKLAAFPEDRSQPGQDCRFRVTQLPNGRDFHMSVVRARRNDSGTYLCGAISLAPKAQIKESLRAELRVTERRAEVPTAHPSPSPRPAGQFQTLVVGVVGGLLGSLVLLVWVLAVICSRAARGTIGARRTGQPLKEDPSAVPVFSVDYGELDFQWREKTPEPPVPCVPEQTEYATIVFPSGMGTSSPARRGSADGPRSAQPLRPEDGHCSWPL

B1: hPD1.29H5L4 (antibody, V domains shown)
VH: EVQLVQSGAEVKKPGASVKVSCKASGYIFTTYYIHWVKQAPGKGLEWIGWIFPGDVSTQYNEKFQDKATITVDKSASTAYMQLSSLRSEDTAVYYCTREAYDYAVYWGQGTLVTVSS
VL: DIQMTQAPSSLSASVGDRVTITCKASQNVDTNVAWFQQKPGKAPKSLIFSASYRYSGVPSRFSGSGSGTDFTLTISSLQPEDFATYYCQQYNNYPFTFGGGTKLEIK
notes: Expressed as human IgG4, kappa with the stabilizing S241P (Kabat) hinge mutation in HEK293 cells; also called humanized PD-1 antibody hPD1.29H5L4
B1 was tested, and the EC50 was 0.3 nM.
